# Measured values published in patent US20030170704A1, “Substance capable of controlling the inclusion of exon 10 of the tau gene, and its therapeutic use against tauopathies” (Max-Planck-Gesellschaft Zur Foerd Der Wissen. E.V., priority 1999, published 2003).
# System: tau exon 10 inclusion (SV10 minigene)
# Test: RT-PCR of tau exon 10 minigene SV10 1:1 co-transfected with splicing regulator cDNA plasmids in COS cells
# Type: cell-based, human
# Conditions: 1:1 co-transfection, FIG. 4
# Experimental: Plasmid DNA was purified by cesium chloride banding (Sambrook et al., 1989). The plasmids obtained in Examples 1 and 2 were introduced into cells by the lipofection method (LT1, Panvera).
# Plates (100 mm) that had reached ˜30% confluence were transfected with 10 μg of construct DNA or 5 μg of each plasmid for co-transfections. The medium was changed 16 h after transfection, without glycerol shock.
# Total RNA was isolated 48 h post-transfection by the TRIzol method (Life Technologies).
# For PCR analysis of RNA, 5 mg of total RNA from transiently transfected cells or 1 mg of polyA^+ RNA were reverse transcribed using random hexamer primers and 200 units of reverse transcriptase (RNAase H^− Superscript, Life Technologies), in a total volume of 20 ml for 1 h at 42° C. Part of this reaction mix (5 ml) was then diluted to a final volume of 50 ml, the concentrations of the buffer and dNTPs were adjusted for PCR and the mixture was amplified for 22 cycles. The conditions were: for the endogenous gene, denaturation at 94° C. for 1 min, annealing at 58° C. for 1 min, extension at 72° C. for 1 min; for the constructs, denaturation at 94° C. for 1 min, annealing at 65° C. for 1 min, extension at 72° C. for 1 min.
# The primer pair used for the endogenous exon 10 pattern was HT9SmS/1017HT (Table 2b). In the case of transfected cells, the primers INS1 and INS3 (Table 2b) were chosen to only amplify products arising from the constructs.
# The RT-PCR experiments were done twice with the polyA^+ RNAs and with total RNAs from three independent transfections, to ensure reproducibility. […] In FIGS. 1-4, the percent of the 10^+ isoform was calculated by scanning the bands from three independent transfections and measuring the areas under the curves (by the IPLab Gel program from Scanalytics).
# RT-PCR was performed in a manner as described in Example 4 (using primer pair: INS1/INS3), except that-mammalian cells were analyzed which had been 1:1 co-transfected with tau exon 10 containing minigene constructs (denoted SV 10) and with plasmids containing cDNA of various plicing regulators. […]
row,Molecule,effect on tau exon 10 inclusion (10+/10- isoform ratio by RT-PCR)
1,"SRp75: serine/arginine-rich (SR) protein splicing regulator, expressed from cDNA under the CMV promoter (protein, UniProt Q08170 1-494, looked up) Serine/arginine-rich splicing …: MPRVYIGRLSYQARERDVERFFKGYGKILEVDLKNGYGFVEFDDLRDADDAVYELNGKDLCGERVIVEHARGPRRDGSYGSGRSGYGYRRSGRDKYGPPTRTEYRLIVENLSSRCSWQDLKDYMRQAGEVTYADAHKGRKNEGVIEFVSYSDMKRALEKLDGTEVNGRKIRLVEDKPGSRRRRSYSRSRSHSRSRSRSRHSRKSRSRSGSSKSSHSKSRSRSRSGSRSRSKSRSRSQSRSRSKKEKSRSPSKEKSRSRSHSAGKSRSKSKDQAEEKIQNNDNVGKPKSRSPSRHKSKSKSRSRSQERRVEEEKRGSVSRGRSQEKSLRQSRSRSRSKGGSRSRSRSRSKSKDKRKGRKRSREESRSRSRSRSKSERSRKRGSKRDSKAGSSKKKKKEDTDRSQSRSPSRSVSKEREHAKSESSQREGRGESENAGTNQETRSRSRSNSKSKPNLPSESRSRSKSASKTRSRSKSRSRSASRSPSRSRSRSHSRS",inhibited
2,"U2AF65: constitutive splicing factor, expressed from cDNA under the CMV promoter (protein, UniProt P26368 2-475, looked up) Splicing factor U2AF 65 kDa …: SDFDEFERQLNENKQERDKENRHRKRSHSRSRSRDRKRRSRSRDRRNRDQRSASRDRRRRSKPLTRGAKEEHGGLIRSPRHEKKKKVRKYWDVPPPGFEHITPMQYKAMQAAGQIPATALLPTMTPDGLAVTPTPVPVVGSQMTRQARRLYVGNIPFGITEEAMMDFFNAQMRLGGLTQAPGNPVLAVQINQDKNFAFLEFRSVDETTQAMAFDGIIFQGQSLKIRRPHDYQPLPGMSENPSVYVPGVVSTVVPDSAHKLFIGGLPNYLNDDQVKELLTSFGPLKAFNLVKDSATGLSKGYAFCEYVDINVTDQAIAGLNGMQLGDKKLLVQRASVGAKNATLVSPPSTINQTPVTLQVPGLMSSQVQMGGHPTEVLCLMNMVLPEELLDDEEYEEIVEDVRDECSKYGLVKSIEIPRPVDGVEVPGCGKIFVEFTSVFDCQKAMQGLTGRKFANRVVVTKYCDPDSYHRRDFW",inhibited
3,"hSWAP: specific splicing regulator Suppressor of White Apricot, expressed from the SV40 early promoter (protein, UniProt Q12872 1-951, looked up) Splicing factor, suppressor …: MYGASGGRAKPERKSGAKEEAGPGGAGGGGSRVELLVFGYACKLFRDDERALAQEQGQHLIPWMGDHKILIDRYDGRGHLHDLSEYDAEYSTWNRDYQLSEEEARIEALCDEERYLALHTDLLEEEARQEEEYKRLSEALAEDGSYNAVGFTYGSDYYDPSEPTEEEEPSKQREKNEAENLEENEEPFVAPLGLSVPSDVELPPTAKMHAIIERTASFVCRQGAQFEIMLKAKQARNSQFDFLRFDHYLNPYYKFIQKAMKEGRYTVLAENKSDEKKKSGVSSDNEDDDDEEDGNYLHPSLFASKKCNRLEELMKPLKVVDPDHPLAALVRKAQADSSTPTPHNADGAPVQPSQVEYTADSTVAAMYYSYYMLPDGTYCLAPPPPGIDVTTYYSTLPAGVTVSNSPGVTTTAPPPPGTTPLPPPTTAETSSGATSTTTTTSALAPVAAIIPPPPDVQPVIDKLAEYVARNGLKFETSVRAKNDQRFEFLQPWHQYNAYYEFKKQFFLQKEGGDSMQAVSAPEEAPTDSAPEKPSDAGEDGAPEDAAEVGARAGSGGKKEASSSKTVPDGKLVKASFAPISFAIKAKENDLLPLEKNRVKLDDDSDDDEESKEGQESSSSAANTNPAVAPPCVVVEEKKPQLTQEELEAKQAKQKLEDRLAAAAREKLAQASKESKEKQLQAERKRKAALFLQTLKNPLPEAEAGKIEESPFSVEESSTTPCPLLTGGRPLPTLEVKPPDRPSSKSKDPPREEEKEKKKKKHKKRSRTRSRSPKYHSSSKSRSRSHSKAKHSLPSAYRTVRRSRSRSRSPRRRAHSPERRREERSVPTAYRVSRSPGASRKRTRSRSPHEKKKKRRSRSRTKSKARSQSVSPSKQAAPRPAAPAAHSAHSASVSPVESRGSSQERSRGVSQEKEAQISSAIVSSVQSKITQDLMAKVRAMLAASKNLQTSAS",inhibited
